Reference: patent US20250206836A1 (ONA THERAPEUTICS S L, published 2025)
Positions count from the first letter of the chain named. Numbers in names are those of the source.

How the values were obtained:
[1] = biological target: T1, human CD36 (on HEK 293 or SCC25 cells) (human, UniProt P16671 2-472); test: cell-based or functional assay
[2] = biological target: T2, nonhuman primate CD36 (on HEK 293 cells) (cynomolgus monkey / rhesus macaque, UniProt P16671 2-472 (human entry)); test: FACS, HEK 293 cells transiently overexpressing CD36;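 also: antibody binding to transfected cells detected by flow cytometry with a fluorescent anti-human secondary antibody, EC50 from a four-parameter sigmoidal fit of mean fluorescence intensity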
T2 construct: also called non-human primate CD36 (cynomolgus)
Protocol: (§1) After transiently transfecting the HEK 293 cells with a CD36 expression construct, cells were treated with three-fold serial dilution of each candidate antibody (10 dilutions starting at 500 nM). […] After incubation with the cells, an anti-human fluorescently labelled antibody was added to the cell media, allowed to incubate further, and the unbound antibody was washed off of the cells. Subsequently, the cells were subjected to FACS analysis to determine antibody binding to the cells. The results were fitted to a sigmoidal titration curve. Using a nonlinear regression model, the EC₅₀ values for each antibody were calculated from the GeoMFI and MFI values using the log(agonist) versus response (four parameters) fitting on the data transformed according to X=Log[X] in GraphPad PRISM.

[3] = biological target: T3, mouse CD36 (on HEK 293 cells) (mouse, UniProt Q08857 1-472); test: as above
T3 construct: also called Murine CD36
Protocol: as §1

[4] = biological target: T1, human CD36 (on HEK 293 or SCC25 cells); test: as above
Protocol: as §1

[5] = biological target: T1, human CD36 (on HEK 293 or SCC25 cells); test: cell-based or functional assay; remark: listed apart in the source
[6] = biological target: T4, purified biotin-tagged human CD36 (human, UniProt P16671 30-439, limits assumed, biotin tag, site not stated); test: AlphaScreen competition; competitor 1G04 on acceptor beads;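 also: streptavidin donor beads excited at 680 nm release singlet oxygen, and the light signal needs a nearby acceptor bead, with 30 min donor-bead incubation at 25 °C in the dark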
[7] = biological target: T1, human CD36 (on HEK 293 or SCC25 cells); test: FACS, SCC25 cells stably overexpressing human CD36
Protocol: as §1

[8] = biological target: T5, human CD36 (His-tagged) (human, UniProt P16671 30-439); test: SPR (Biacore T200), His-captured CD36, bivalent analyte model
T5 construct: not shown: His tag

[9] = biological target: T1, human CD36 (on HEK 293 or SCC25 cells); test: cell-based or functional assay; remark: listed apart in the source
[10] = biological target: T4, purified biotin-tagged human CD36; test: AlphaScreen competition; competitor FA6-152 on acceptor beads
Protocol: (§2) This was done using the AlphaScreen® bead-based microplate assay. […] AlphaLISA® Streptavidin Donor Beads were then added and the mix incubated for 30 min at 25° C. in the dark. The donor bead contains a photosensitizer, which upon excitation by light at 680 nm, converts oxygen (O₂) into an excited form, singlet oxygen. Singlet oxygen molecules have a reduced lifetime (4 microseconds half-life) and can diffuse approximately 200 nm in solution before falling back to ground state. In the absence of acceptor beads, the singlet oxygen molecules fall back to ground state without producing any light signal.

[11] = biological target: T4, purified biotin-tagged human CD36; test: AlphaScreen competition; competitor 11G04 on acceptor beads
Protocol: as §2

[12] = biological target: T1, human CD36 (on HEK 293 or SCC25 cells); test: FACS, SCC25 cells stably expressing human CD36
Protocol: SCC25 cells were treated with 10-fold serial dilution of each antibody (5 dilutions starting at 100 nM). After incubation with the cells, an anti-human fluorescently labelled antibody was added to the cell media, allowed to incubate further, and the unbound antibody was washed off of the cells. Subsequently, the cells were subjected to FACS analysis to determine antibody binding to the cells. The results were fitted to a sigmoidal titration curve. Using a nonlinear regression model, the EC₅₀ values for each antibody were calculated from the GeoMFI and MFI values using the log(agonist) versus response (four parameters) fitting on the data transformed according to X=Log[X] in GraphPad PRISM.

[13] = biological target: T6, human CD36 (Sino Biological) (human, UniProt P16671 30-439); test: ELISA, plates coated with human CD36 (Sino Biological), antibody titrated, OD630nm
T6 construct: Bought protein coated on ELISA plates
Description: Binding was first tested using an ELISA assay in which 96-well ELISA plates were coated with human CD36 (Sino Biological) or mouse CD36 protein.
For Percent Fatty Acid Uptake Inhibition in this document: test concentration or dose not given here.

T5 sequence (P16671 30-439 limits assumed): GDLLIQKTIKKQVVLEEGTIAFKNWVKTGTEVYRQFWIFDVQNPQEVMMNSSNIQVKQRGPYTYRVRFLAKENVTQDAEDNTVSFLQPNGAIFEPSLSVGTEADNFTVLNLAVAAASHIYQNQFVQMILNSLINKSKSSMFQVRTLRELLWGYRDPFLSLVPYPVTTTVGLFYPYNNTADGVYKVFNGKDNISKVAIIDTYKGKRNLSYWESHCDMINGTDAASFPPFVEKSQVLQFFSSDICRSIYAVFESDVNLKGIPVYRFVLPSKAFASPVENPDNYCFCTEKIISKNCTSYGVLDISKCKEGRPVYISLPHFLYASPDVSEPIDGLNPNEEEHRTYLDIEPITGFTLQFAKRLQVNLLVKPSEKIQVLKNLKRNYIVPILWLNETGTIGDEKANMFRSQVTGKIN
T4 sequence (P16671 30-439 limits assumed): as above
T2 sequence (P16671 other isoform, or with tags, fused parts or gaps limits assumed): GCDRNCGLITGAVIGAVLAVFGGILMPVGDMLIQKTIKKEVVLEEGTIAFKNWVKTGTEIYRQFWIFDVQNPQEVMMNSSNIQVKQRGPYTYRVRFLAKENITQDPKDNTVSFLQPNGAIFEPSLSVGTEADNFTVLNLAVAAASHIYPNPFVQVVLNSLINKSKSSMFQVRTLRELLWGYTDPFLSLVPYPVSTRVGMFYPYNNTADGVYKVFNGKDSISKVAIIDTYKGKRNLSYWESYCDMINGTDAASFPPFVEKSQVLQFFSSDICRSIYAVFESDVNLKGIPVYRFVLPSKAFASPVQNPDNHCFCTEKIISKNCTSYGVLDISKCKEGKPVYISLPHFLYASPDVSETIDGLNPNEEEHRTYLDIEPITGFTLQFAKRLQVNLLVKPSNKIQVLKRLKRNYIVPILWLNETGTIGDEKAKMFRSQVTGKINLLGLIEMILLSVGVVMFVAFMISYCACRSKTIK
T3 sequence (Q08857 whole entry): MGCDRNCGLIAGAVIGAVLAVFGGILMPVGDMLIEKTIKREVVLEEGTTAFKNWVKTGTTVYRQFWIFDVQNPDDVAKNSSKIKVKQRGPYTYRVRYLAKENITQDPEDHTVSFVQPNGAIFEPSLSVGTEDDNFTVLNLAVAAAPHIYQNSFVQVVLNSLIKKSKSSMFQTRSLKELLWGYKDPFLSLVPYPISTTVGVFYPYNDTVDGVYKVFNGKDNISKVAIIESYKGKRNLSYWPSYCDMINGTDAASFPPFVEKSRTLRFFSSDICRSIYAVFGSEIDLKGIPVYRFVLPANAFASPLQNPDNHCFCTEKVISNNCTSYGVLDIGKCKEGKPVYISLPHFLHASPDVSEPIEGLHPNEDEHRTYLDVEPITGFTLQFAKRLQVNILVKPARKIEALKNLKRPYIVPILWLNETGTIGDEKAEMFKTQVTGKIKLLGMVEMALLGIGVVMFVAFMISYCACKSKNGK
T1 sequence (P16671 2-472 limits assumed): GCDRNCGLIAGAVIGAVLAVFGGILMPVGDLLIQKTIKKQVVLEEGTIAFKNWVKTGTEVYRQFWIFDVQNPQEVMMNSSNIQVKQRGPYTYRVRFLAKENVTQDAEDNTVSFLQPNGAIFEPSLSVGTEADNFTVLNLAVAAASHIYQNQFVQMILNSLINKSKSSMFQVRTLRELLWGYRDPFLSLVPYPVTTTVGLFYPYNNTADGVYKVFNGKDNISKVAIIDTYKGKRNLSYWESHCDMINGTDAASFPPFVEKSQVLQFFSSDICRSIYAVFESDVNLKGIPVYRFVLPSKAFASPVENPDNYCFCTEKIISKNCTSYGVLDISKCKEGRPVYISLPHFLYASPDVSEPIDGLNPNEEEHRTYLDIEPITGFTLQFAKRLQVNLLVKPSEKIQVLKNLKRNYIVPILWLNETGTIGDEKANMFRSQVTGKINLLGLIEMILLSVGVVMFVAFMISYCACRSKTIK
T6 sequence (P16671 30-439 limits assumed): as the sequence (P16671 30-439 limits assumed) above

B1: 13G04 (antibody, human IgG1, V domains shown)
VH: QVQLQQSGAELVRPGASVKLSCKASGYTFTSYWMNWVKQRPGQGLEWIGMIDPSDNETHYNQMFKDKATLTVDKSSSTAYMQLSSLTSEDSAVYYCARSDYGNGYSFYLDVWGAGTTVTVSS
VL: DIVLTQSPASLAVSLGQRATISCRASESVDSYGNSFMHWYQQKPGQPPKLLIYRASNLESGIPARFSGSGSRTDFTLTINPVEADDVATYYCQQSNEDPWTFGGGTKLEIK
notes: Chimeric: mouse variable regions on human IgG1 LALA (L234A/L235A); also called 013G04
IC50 of fatty acid uptake inhibition (BODIPY FL C16, HEK hCD36 cells) [1]: 0.2 nM
EC50 [2]: 1.06 nM
EC50 [3]: 5.93 nM
EC50 [4]: 0.31 nM
Percent Fatty Acid Uptake Inhibition [5]: 52.8%
EC50 [6]: 0.17 nM
EC50 [7]: 0.26 nM
Kd [8]: 1.5 nM
koff [8]: 0.0037 s⁻¹
kon [8]: 2.4e+06 M⁻¹ s⁻¹
IC50 of oxLDL uptake inhibition (DiI-oxLDL, SCC25 cells) [9]: 0.26 nM
EC50 [10]: 46.8 nM

B2: 4G04 (antibody, human IgG1, V domains shown)
VH: QVQLQQPGSELRSPGSSVKLSCKDFDSEVFPIAYMTWVRQKPGHGFEWIGDILPSIGGTIYGEKFEDKATLDADTVSNTAYLELNSLTSEDSAIYYCARDYYGSSYGYFDVWGAGTAVTVSS
VL: DIVLTQSQKFMSTSVGDRVSVTCKASQNVGTNVAWYQQKPGQSPKALIYSASYRYSGVPDRFTGSGSGTDFTLTISNVQSEDLAEYFCQQYNSYPYTFGGGTKLEIK
notes: Chimeric: mouse variable regions on human IgG1 LALA (L234A/L235A); also called 04G04; 004G04
IC50 of fatty acid uptake inhibition (BODIPY FL C16, HEK hCD36 cells) [1]: 483 nM
EC50 [2]: 27.7 nM
EC50 [6]: 0.11 nM
EC50 [10]: 9.89 nM

B3: 6G04 (antibody, human IgG1, V domains shown)
VH: QVQLQQSGAELVMPGASVKMSCKASGYTFTDYWMHWVKQRPGQGLEWIGSIDTSDSYTTYSQKFKGKATLTVDESSSTAYMELARLTSEDSAIYYCVRGEDYEGTWFAYWGQGTLVTVSA
VL: ETTVTQSPASLSVATGEKVTIRCITSTDIDDDMNWYQQKPGEPPKLLISEGNTLRPGVPSRFSSSGYGTDFVFTIENTLSEDVADYYCLQSDNMPLTFGAGTKLELK
notes: Chimeric: mouse variable regions on human IgG1 LALA (L234A/L235A); also called 06G04; 006G04
IC50 of fatty acid uptake inhibition (BODIPY FL C16, HEK hCD36 cells) [1]: 0.1 nM
EC50 [2]: 4.85 nM
EC50 [3]: 1.51 nM
EC50 [4]: 0.53 nM
Percent Fatty Acid Uptake Inhibition [5]: 35.1%
EC50 [6]: 1.15 nM
EC50 [7]: 0.56 nM
Kd [8]: 0.51 nM
koff [8]: 0.0002 s⁻¹
kon [8]: 390000 M⁻¹ s⁻¹
IC50 of oxLDL uptake inhibition (DiI-oxLDL, SCC25 cells) [9]: 0.27 nM
EC50 [10]: 1040 nM

B4: 15G04 (antibody, human IgG1, V domains shown)
VH: QVQLQQSGPELVKPGASVKISCKASGYTFSTSWMNWVKQRPGQGLEWIGRIYPGDGDTNYNGKFKGKATLTADTSSSTAYMQLSSLTSVDSAVYFCAREVYYGGYEDYGMDYWGQGTSVTVSS
VL: DVVMTQTPLSLPVSLGDQASISCRSSQSLLHTNVNTYLHWYLQKPGQSPKLLIYKVSNRFSGVPDRFSGSGSGTDFTLKISRVEAEDLGVYFCSQSTHVPYTFGGGTKLEIK
notes: Chimeric: mouse variable regions on human IgG1 LALA (L234A/L235A); also called 015G04
IC50 of fatty acid uptake inhibition (BODIPY FL C16, HEK hCD36 cells) [1]: > 1000 nM
EC50 [2]: 2.2 nM
EC50 [6]: 0.41 nM
EC50 [10]: 5.65 nM

B5: 16G04 (antibody, human IgG1, V domains shown)
VH: EVQLQQSGPELVKPGASVKISCKTSGYTFTEYTMHWVKQSHGKSLEWIGGINPYNGGTAYNQKFKNKATLTVDISSNTAFMEFRSLTSEDSAVYYCASDYFYGDANPWFAYWGQGTLVTVSA
VL: B3 VL with V13M, T15I, T78M, M94L
notes: Chimeric: mouse variable regions on human IgG1 LALA (L234A/L235A); also called 016G04
IC50 of fatty acid uptake inhibition (BODIPY FL C16, HEK hCD36 cells) [1]: 0.15 nM
EC50 [2]: 5.4 nM
EC50 [3]: 18.2 nM
EC50 [4]: 1.36 nM
Percent Fatty Acid Uptake Inhibition [5]: 45.2%
EC50 [6]: 9.19 nM
EC50 [7]: 0.57 nM
EC50 [11]: 3.73 nM

B6: 29G04 (antibody, human IgG1, V domains shown)
VH: QVQLQQSGTELVKPGASVKLSCKASGYTFTSYWMHWVKQRPGQGLEWIGEIDPSDSHTNYNQKFKGKATLTVDKSSSTAYMQLSSLTSEDSAVYYCAPIYYGLDNWGQGTTLTVSS
VL: B2 VL with Y96L, G100A, I106L
notes: Chimeric: mouse variable regions on human IgG1 LALA (L234A/L235A); also called 029G04
IC50 of fatty acid uptake inhibition (BODIPY FL C16, HEK hCD36 cells) [1]: 0.08 nM
EC50 [2]: 0.32 nM
EC50 [4]: 0.36 nM
EC50 [6]: 0.37 nM
EC50 [10]: 33.8 nM

B7: 1G05 (antibody, V domains shown)
VH: QVQLKQSGADLVRPGASVKLSCKASGYTFTDYYINWVKQRPGQGLEWIARIYPGSGNTYYNEKFKGKATLTAEKSSSTAYMQLSSLTSEDSAVYFCARGIGGGFGMDYWGQGTSVTVSS
VL: SIVMTQTPKFLLVSAGDRITITCKASQSVSDDVAWYQQKPGQSPKLLIYYASNRYTGVPDRFTGSGYGTDFTFTISTVQAEDLAVYFCQQDYSSPLTFGAGTKLEIK
notes: also called LALAPG
EC50 [12]: 0.38 nM
EC50 (read off the curve) [13]: ~100 pM

B8: 1G03 (antibody, V domains shown)
VH: B7 VH
VL: B7 VL
EC50 [12]: 0.38 nM
EC50 (read off the curve) [13]: ~100 pM

B9: 27G04 (antibody, human IgG1, V domains shown)
VH: EVQLQQSGAELLKPGASVKISCKTTGYTFSNYWIEWVKQRPGHGLEWIGEILPGSGSPKYNEKFKGKATLTADTSSNTAFMQLSSLTSEDSAVYYCAPFILENYFDYWGQGTTLTVSS
VL: DIQMTQSHKFMSTSVGDRVSITCKASQDVSTAVAWYQQKPGQSPKLLIYSASYRYTGVPDRFTGSGSGTDFTFTISSVQAEDLAVYYCQQHYSTPRTFGGGTKLEIK
notes: Chimeric: mouse variable regions on human IgG1 LALA (L234A/L235A)
EC50 [2]: 0.63 nM
EC50 [4]: 0.91 nM
EC50 [6]: 0.15 nM
EC50 [10]: 1.8 nM

B10: 1G07 (antibody, V domains shown)
VH: B7 VH
VL: B7 VL
notes: also called SPLE
EC50 [12]: 0.47 nM
